How the values were obtained:
[1] = molecular target: the molecule itself; test: SDS-resistant oligomers on SDS-PAGE and western blot; striatal synaptosomes of adult HA-DAT mice in KRH/G, vehicle (DMSO) or 10–20 µM AIM-100 for 2 hr at 37°C; pelleted synaptosomes denatured in Laemmli buffer, SDS-PAGE, blot with DAT antibody
[2] = molecular target: the molecule itself; test: SDS-resistant oligomers on SDS-PAGE and western blot; PAE cells stably expressing the tagged transporter, vehicle (DMSO) or 20 µM AIM-100 for 2 hr at 37°C (also after cocaine, dopamine, amphetamine, modafinil, KRCA-0008, CHC siRNA, at 4°C or 20°C); lysis in TGH buffer, Laemmli buffer (2% SDS, 5% β-mercaptoethanol) 5 min at 95°C, 7.5% SDS-PAGE, blot with GFP antibody; oligomers (O) against monomers (M)

| Protein | stoichiometry N [1] | stoichiometry N [2] |
| --- | --- | --- |
| HA-DAT (endogenous, HA-DAT knock-in mouse) (natural protein, UniProt Q61327 1-619, looked up, it is reached by the HA11 antibody from outside the cell; Detected with the rat DAT antibody; oligomer species at 190 kDa; also called mouse DAT; source: endogenous (knock-in), striatal synaptosomes of adult HA-DAT mice) MSKSKCSVGPMSSVVAPAKEPNAVGPREVELILVKEQNGVQLTNSTLINPPQTPVEVQERETWSKKIDFLLSVIGFAVDLANVWRFPYLCYKNGGGAFLVPYLLFMVIAGMPLFYMELALGQFNREGAAGVWKICPVLKGVGFTVILISFYVGFFYNVIIAWALHYFFSSFTMDLPWIHCNNTWNSPNCSDAHSSNSSDGLGLNDTFGTTPAAEYFERGVLHLHQSRGIDDLGPPRWQLTACLVLVIVLLYFSLWKGVKTSGKVVWITATMPYVVLTALLLRGVTLPGAMDGIRAYLSVDFYRLCEASVWIDAATQVCFSLGVGFGVLIAFSSYNKFTNNCYRDAIITTSINSLTSFSSGFVVFSFLGYMAQKHNVPIRDVATDGPGLIFIIYPEAIATLPLSSAWAAVFFLMLLTLGIDSAMGGMESVITGLVDEFQLLHRHRELFTLGIVLATFLLSLFCVTNGGIYVFTLLDHFAAGTSILFGVLIEAIGVAWFYGVQQFSDDIKQMTGQRPNLYWRLCWKLVSPCFLLYVVVVSIVTFRPPHYGAYIFPDWANALGWIIATSSMAMVPIYATYKFCSLPGSFREKLAYAITPEKDRQLVDRGEVRQFTLRHWLLV | ~3 |  |
| DAT fused to yellow fluorescent protein (YFP) (YFP-DAT) (natural protein, human, UniProt Q01959 1-620, looked up, Dopamine transporter (DAT), human; In the FRET experiment one copy carried CFP (CFP-DAT) and the other YFP (YFP-DAT); also called CFP-DAT (the copy with CFP in place of YFP, donor in the FRET experiment); source: PAE cells, stably expressed, in lysate; for FRET in living PAE cells stably co-expressing CFP-DAT and YFP-DAT) MSKSKCSVGLMSSVVAPAKEPNAVGPKEVELILVKEQNGVQLTSSTLTNPRQSPVEAQDRETWGKKIDFLLSVIGFAVDLANVWRFPYLCYKNGGGAFLVPYLLFMVIAGMPLFYMELALGQFNREGAAGVWKICPILKGVGFTVILISLYVGFFYNVIIAWALHYLFSSFTTELPWIHCNNSWNSPNCSDAHPGDSSGDSSGLNDTFGTTPAAEYFERGVLHLHQSHGIDDLGPPRWQLTACLVLVIVLLYFSLWKGVKTSGKVVWITATMPYVVLTALLLRGVTLPGAIDGIRAYLSVDFYRLCEASVWIDAATQVCFSLGVGFGVLIAFSSYNKFTNNCYRDAIVTTSINSLTSFSSGFVVFSFLGYMAQKHSVPIGDVAKDGPGLIFIIYPEAIATLPLSSAWAVVFFIMLLTLGIDSAMGGMESVITGLIDEFQLLHRHRELFTLFIVLATFLLSLFCVTNGGIYVFTLLDHFAAGTSILFGVLIEAIGVAWFYGVGQFSDDIQQMTGQRPSLYWRLCWKLVSPCFLLFVVVVSIVTFRPPHYGAYIFPDWANALGWVIATSSMAMVPIYAAYKFCSLPGSFREKLAYAIAPEKDRELVDRGEVRQFTLRHWLKV |  | ~3 |

— paper PMC5896956, “Small molecule induced oligomerization, clustering and clathrin-independent endocytosis of the dopamine transporter” (eLife, 2018)
